The values that follow come from article PMC7834972.

For orientation: stoichiometry N means a count of units in the complex or per binding partner.

The assay has as its target SARS-CoV-2 S-I53-50A.1NT1 fusion protein (SARS-CoV-2). Nature of the assay: SEC; Superose 6 increase 10/300 GL in TBS with 5% glycerol; fractions between 12-14 mL pooled; blue native gel of the pooled fractions.

In turn, “SARS-CoV-2 S-I53-50A.1NT1 fusion protein” showed a stoichiometry N of 3.
